{
  "source": "IntAct's records for PubMed 33393904",
  "parents": {"B1": {"name": "SUN domain-containing protein 2 (Homo sapiens), Q9UH99 (parent)", "chain": "MSRRSQRLTRYSQGDDDGSSSSGGSSVAGSQSTLFKDSPLRTLKRKSSNMKRLSPAPQLGPSSDAHTSYYSESLVHESWFPPRSSLEELHGDANWGEDLRVRRRRGTGGSESSRASGLVGRKATEDFLGSSSGYSSEDDYVGYSDVDQQSSSSRLRSAVSRAGSLLWMVATSPGRLFRLLYWWAGTTWYRLTTAASLLDVFVLTRRFSSLKTFLWFLLPLLLLTCLTYGAWYFYPYGLQTFHPALVSWWAAKDSRRPDEGWEARDSSPHFQAEQRVMSRVHSLERRLEALAAEFSSNWQKEAMRLERLELRQGAPGQGGGGGLSHEDTLALLEGLVSRREAALKEDFRRETAARIQEELSALRAEHQQDSEDLFKKIVRASQESEARIQQLKSEWQSMTQESFQESSVKELRRLEDQLAGLQQELAALALKQSSVAEEVGLLPQQIQAVRDDVESQFPAWISQFLARGGGGRVGLLQREEMQAQLRELESKILTHVAEMQGKSAREAAASLSLTLQKEGVIGVTEEQVHHIVKQALQRYSEDRIGLADYALESGGASVISTRCSETYETKTALLSLFGIPLWYHSQSPRVILQPDVHPGNCWAFQGPQGFAVVRLSARIRPTAVTLEHVPKALSPNSTISSAPKDFAIFGFDEDLQQEGTLLGKFTYDQDGEPIQTFHFQAPTMATYQVVELRILTNWGHPEYTCIYRFRVHGEPAH"}},
  "data": [
    {"variants_of": "B1", "settings": "with syne1_human SYNE1, Q8NF91", "values": [
      {"variant": "C705A", "effect of a mutation on the interaction": "increasing interaction strength"},
      {"variant": "I579E", "effect of a mutation on the interaction": "disrupting interaction strength"}
    ]}
  ]
}
